Assay results reported in US20170174769A1 (Regeneron, published 2017).

T1: extracellular domain of human KLB expressed with C-terminal HA and hexahistidine tags (human, UniProt Q86Z14 1-996)
T1 construct: also called hKLB-HA-6His; hKLB-HA-6his
T1 sequence: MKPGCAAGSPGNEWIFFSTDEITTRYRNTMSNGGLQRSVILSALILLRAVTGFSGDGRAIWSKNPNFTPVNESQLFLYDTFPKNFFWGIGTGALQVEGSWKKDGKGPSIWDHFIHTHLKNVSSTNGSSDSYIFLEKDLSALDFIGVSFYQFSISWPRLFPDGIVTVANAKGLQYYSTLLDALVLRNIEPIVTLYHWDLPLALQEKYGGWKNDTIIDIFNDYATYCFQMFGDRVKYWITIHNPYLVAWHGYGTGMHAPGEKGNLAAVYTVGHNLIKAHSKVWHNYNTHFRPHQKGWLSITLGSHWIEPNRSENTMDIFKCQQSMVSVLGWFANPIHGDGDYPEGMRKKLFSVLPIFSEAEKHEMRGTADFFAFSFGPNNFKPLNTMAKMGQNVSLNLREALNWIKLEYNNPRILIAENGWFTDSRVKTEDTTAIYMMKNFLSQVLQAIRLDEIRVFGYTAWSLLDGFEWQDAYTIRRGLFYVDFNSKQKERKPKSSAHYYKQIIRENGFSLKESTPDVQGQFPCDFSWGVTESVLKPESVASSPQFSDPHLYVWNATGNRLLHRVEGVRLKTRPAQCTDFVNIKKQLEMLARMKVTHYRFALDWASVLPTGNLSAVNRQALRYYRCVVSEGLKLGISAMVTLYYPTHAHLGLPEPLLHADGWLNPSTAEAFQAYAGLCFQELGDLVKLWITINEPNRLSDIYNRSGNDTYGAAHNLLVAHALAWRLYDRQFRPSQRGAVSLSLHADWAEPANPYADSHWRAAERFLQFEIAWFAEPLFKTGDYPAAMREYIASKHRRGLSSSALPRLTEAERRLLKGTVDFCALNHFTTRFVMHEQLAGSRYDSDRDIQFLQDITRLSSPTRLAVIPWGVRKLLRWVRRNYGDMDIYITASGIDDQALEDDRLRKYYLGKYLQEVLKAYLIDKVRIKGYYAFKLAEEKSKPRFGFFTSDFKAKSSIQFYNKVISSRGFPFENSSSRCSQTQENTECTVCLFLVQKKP

T2: extracellular domain of human FGFR1c expressed with C-terminal V5 and hexahistidine tags (human, UniProt P11362 22-376)
T2 construct: also called hFGFR1c-V5-6His
T2 sequence: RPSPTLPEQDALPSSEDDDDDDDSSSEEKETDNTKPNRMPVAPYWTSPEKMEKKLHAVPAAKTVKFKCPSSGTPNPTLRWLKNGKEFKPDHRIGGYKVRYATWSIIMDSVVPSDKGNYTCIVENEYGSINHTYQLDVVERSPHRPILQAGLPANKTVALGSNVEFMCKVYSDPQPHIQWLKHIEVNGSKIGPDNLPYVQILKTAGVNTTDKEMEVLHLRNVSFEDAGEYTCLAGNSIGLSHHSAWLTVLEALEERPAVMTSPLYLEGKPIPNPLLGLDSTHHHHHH


How the values were obtained:
[1] = biological target: human KLB and human FGFR1c co-expressed on HEK293/hKLB/hFGFR1c/SRE-luc cells (human, UniProt Q86Z14 1-1044; P11362 22-822); test: cell-based or functional assay
[2] = biological target: T1, extracellular domain of human KLB …; test: SPR, mAb captured, 25 C
Method: (§1) Equilibrium dissociation constants (KD values) for human KLB or human FGFR1c binding to purified anti-KLB/FGFR1c monoclonal antibodies were determined using a real-time surface plasmon resonance biosensor using a Biacore T-200 or 4000 instrument. The Biacore sensor surface was derivatized by amine coupling with either a polyclonal rabbit anti-mouse antibody (GE, # BR-1008-38) or with a monoclonal mouse anti-human Fc antibody (GE, # BR-1008-39) to capture anti-KLB/FGFR1c monoclonal antibodies expressed with either a mouse Fc or a human Fc, respectively. All Biacore binding studies were performed in a buffer composed of 0.01M HEPES pH 7.4, 0.15M NaCl, 3mM EDTA, 0.05% v/v Surfactant P20 (HBST running buffer). […] Association of hKLB-HA-6His or hFGFR1c-V5-6His to the captured monoclonal antibody was monitored for 3.5 to 4 minutes and the dissociation of hKLB-HA-6His or hFGFR1c-V5-6His in HBST running buffer was monitored for 8-12 minutes. All the binding kinetics experiments were performed at 25° C. or 37° C. Kinetic association (kₐ) and dissociation (kd) rate constants were determined by fitting the real-time sensorgrams to a 1:1 binding model using Scrubber 2.0c curve fitting software. Binding dissociation equilibrium constants (KD) and dissociative half-lives (t½) were calculated from the kinetic rate constants as: […]

[3] = biological target: T2, extracellular domain of human FGFR1c …; test: SPR, mAb captured, 25 C
Method: as §1

[4] = biological target: T1, extracellular domain of human KLB …; test: SPR, mAb captured, 37 C
Method: as §1

[5] = biological target: T2, extracellular domain of human FGFR1c …; test: SPR, mAb captured, 37 C
Method: as §1

Binder | EC50, SRE-luc activation without ligand [1] [pM] | Maximum Activation (%) without ligand [1] [%] | 20 nM hKLB-HA-6His Bind (RU) [2] [RU] | Kd [2] [pM] | koff [2] [s⁻¹] | kon [2] [M⁻¹ s⁻¹] | t1/2 [2] [h] | 180 nM hFGFR1c-V5-6His Bind (RU) [3] [RU] | 20 nM hKLB-HA-6His Bind (RU) [4] [RU] | Kd [4] [pM] | koff [4] [s⁻¹] | kon [4] [M⁻¹ s⁻¹] | t1/2 [4] [h] | 180 nM hFGFR1c-V5-6His Bind (RU) [5] [RU] | binding result [3] | other results
H2aM8093N (antibody, V domains shown, mouse IgG2 Fc (H2aM prefix)) VH: QVQLVQSGAEVKRPGSSVKVSCKASGDTFSTYAISWVRQAPGQGLEWMGGIIPVFGTTNYAQKFQDRVTITTDESTRTAYMELSSLRSEDTAVYYCAGIAGPDYWGQGTLVTVSS VL: DIQMTQSPSSLSASVGDRVTITCRASQGIRNYLAWFQQKPGKAPKSLIYLATSLQSGVPSKFSGSGSGTDFTLTISSLQPEDFATYYCQQYYSYPWTFGQGTKVEIK | 68 | 1 | 147 | 218 | 9.8e-05 | 449000 | 1.96 | -1.2 | 211 | 222 | 0.00018 | 812000 | 1.07 | 0.6 | – | –
H2aM8109N (antibody, V domains shown, mouse IgG2 Fc (H2aM prefix)) VH: QVQVVESGGGVVQPGRSLRLSCAASGFTFSSYGLHWVRQAPGKGLEWVAVIWHDGSHKYYADSVKGRFTISRDNSKNTLYLQMNSLRAEDTAVYYCARDGIPVAEDYYFYGMDVWGQGTTVTVSS VL: DIQMTQSPSSLSASVGDRVTITCRASQGIRNDLGWYQQKPGKAPKRLIYAASSLQSGVPSRFSGSGSGTEFTLTISSLQPEDFAIYYCLQHNSLTFGGGTKVEIK | 3300 | 0.5 | 21.3 | 4440 | 0.000449 | 101000 | 0.428 | -0.7 | 36.8 | 6200 | 0.00131 | 211000 | 0.147 | 0.7 | – | –
H4H8837P (antibody, V domains shown, human IgG4 Fc (H4H prefix)) VH: QVQLVESGGGVVQPGRSLRLSCAASGFTFNSYAMHWVRQAPGMGLEWVAVISSDGSNKYYADSVRGRFTVSRDNSKNTLYLQMNSLRSEDTAVYYCAKDGRGYSSFSHFGMDVWGQGTTVTVSS VL: DIQMTQSPSTLSASVGDRVTITCRASQSIGSWLAWYQQKPGKAPKLLIYKTSSLESGVPSRFSGSGSGTEFTLTISSLQPDDFASYYCQQYNSYSFGQGTKVEIK | 120 | 1 | 63 | 367 | 0.000128 | 350000 | 1.5 | 0.2 | 372 | 401 | 0.000128 | 320000 | 1.5 | 0.1 | no binding (tested: 180 nM) | –
H4H8859P (antibody, V domains shown, human IgG4 Fc (H4H prefix)) VH: EVQLVESGGSVVRPGGSLRLSCAASGFTFDVYGMSWVRQAPGKGLEWVSGINWIGGSTGYADSVKGRFTISRDNAKNSLYLQMNSLRAEDTALYYCTREEDYWGQGTLVTVSS VL: DVVMTQSPLSLAVTLGQPASISCRSSQSLVYSDGNTYLNWFQQRPGQSPRRLFYKVSNRDSGVPDRFSGSGSGTDFTLKISRVEAEDVGIYYCMQGIKWPLTFGGGTKVEIK | – | – | -0.8 | – | – | – | – | 4.9 | 0.8 | – | – | – | – | 6.8 | – | Kd [3]: 352000 pM; koff [3]: 0.0536 s⁻¹; kon [3]: 152000 M⁻¹ s⁻¹; t1/2 [3]: 13.2 s; Kd [5]: 497000 pM; koff [5]: 0.0382 s⁻¹; kon [5]: 76800 M⁻¹ s⁻¹; t1/2 [5]: 18 s
H4H8852P (antibody, V domains shown, human IgG4 Fc (H4H prefix)) VH: QVQLQESGPGLVKPSETLSLTCTVSGGSISSYYWSWIRQPPGKGLEWIGYIYSSGIIKYNPSLKSRVTISADTSKNQFSLKLSSVTAADTAVYYCARHGIFGVMEYFQRWGQGTLVTVSS VL: DIQMTQSPSSLSASIGDRVTITCQASQDIGNFLNWYQQKPGKAPTLLIYDASNMETGVPSRFSGSGSGTYFTFTISSLQPEDVATYYCQQYDNLPLTFGGGTKVEIK | 210 | 5 | -0.2 | – | – | – | – | 0 | 5.1 | – | – | – | – | 1 | no binding (tested: 180 nM) | –

More lines, main results first:

EC50, SRE-luc activation without ligand [1] [pM] | Maximum Activation (%) without ligand [1] [%] | 20 nM hKLB-HA-6His Bind (RU) [2] [RU] | Kd [2] [pM] | koff [2] [s⁻¹] | kon [2] [M⁻¹ s⁻¹] | t1/2 [2] [h] | 180 nM hFGFR1c-V5-6His Bind (RU) [3] [RU] | 20 nM hKLB-HA-6His Bind (RU) [4] [RU] | Kd [4] [pM] | koff [4] [s⁻¹] | kon [4] [M⁻¹ s⁻¹] | t1/2 [4] [h] | 180 nM hFGFR1c-V5-6His Bind (RU) [5] [RU] | binding result [3] | Binder | other results
53 | 1 | 77.6 | 110 | 5.02e-05 | 455000 | 3.83 | -1.8 | 118 | 206 | 0.000144 | 699000 | 1.34 | 0.4 | – | H1M8115N (antibody, V domains shown, H1M Fc prefix (mouse Fc)) VH: QVQLVQSGAEVKKPGSSVKVSCKASGGTFSTYEISWVRQAPGQGLEWMGGIIPVFGTTHYAQKFQDSVTITTDESTGTAFMELSSLKSEDTAVYYCARGGAGGDNWGQGTLVTVSS VL: not shown | –
300 | 6 | -0.4 | – | – | – | – | 0.1 | -0.5 | – | – | – | – | 0.3 | no binding (tested: 180 nM) | H4H8856P (antibody, V domains shown, human IgG4 Fc (H4H prefix)) VH: QVQLQESGPGLVKPSETLSLTCTVSGGSISSYYWSWIRQPPGKGLEWIAYIYYSGITKYNPSLKSRVTISADTSKNQFSLKLSSVTAADTAVYYCARHGIFGVMEYFQRWGQGTLVTVSS VL: DIQMTQSPSSLSASIGDRVTITCQASQDISNFLNWYQQKPGKAPTLLIYDVSNMETGVPSRFSGSGYGTDFTLTISSLKPEDIATYYCQQYDNIPLTFGGGTKVEIK | –
750 | 4 | -0.2 | – | – | – | – | 5.8 | -0.7 | – | – | – | – | 2.3 | – | H2aM8832N (antibody, V domains shown, mouse IgG2 Fc (H2aM prefix)) VH: QVQLVESGGGVVQPGRSLRLSCAASGFTFSRYGMHWVRQAPGKGLEWVAVIWYDGTNKYYEDSLKGRFTISRDNSKNTLYLQMNSLRAEDSAVYYCARDQGKYIDYWGQGTLVTVSS VL: AIQMTQSPSSLSASVGDRVTITCRTSQDIRNDLGWYQQKPGKVPNLLIYAASTLQSGVPSRFSGSGSGTDFTLTISSLQPEDFATYYCLQDYNYPFTFGPGTKVDIK | –
– | – | 0.5 | – | – | – | – | 2.4 | -0.1 | – | – | – | – | 2.8 | no binding (tested: 180 nM) | H1H8899P (antibody, V domains shown) VH: EVQLVESGGGLVQPGGSLRLSCAASGFTFSSHWMSWVRQAPGKGLEWVANIKQDGSEKYYVDSVKGRFTISRDNAKNSLYLQISSLRAEDTAVYYCASNWNFLFDFWGQGTLVTVSS VL: not shown | –
